{
  "source": "the DeepSol protein solubility set",
  "data": [
    {"test": "soluble on expression in E. coli; label from the status in PepcDB or PDB records", "values": [
      {"sequence": "MDLSPLDVRYQEFPRAFRGYHRGAVREYLARVAEAMEALIRENEVLKERLRALEEENARLKEAEGELKRAVVAAERIARELKAQAEREAELLRKEAQAAKERLLQEAAQELKRLRAEIERARQEKALFLGQVRALFEGYLEALKRLEKTP", "soluble on expression in E. coli": "soluble"},
      {"sequence": "MGSDKIHHHHHHTACETDNDSNPILNEPDTFTLNTPAYAANNVYDLKNAQTVELTCSQPDYGFPAATTYTVQASFEQDFIEATDESKANYTVLESTSPTAKINVDASELNNALLDLWTAVNGEQAELPTEPVAVYIRLKANITSSGKGVCFSNVIELPNVLISKSTSSLTPPKTMFIVGSMLDTDWKVWKPMAGVYGMDGQFYSMIYFDANSEFKFGTKENEYIGINDNRVTVTDKAGAGVSGSDNFVVENAGWYLFYVKAAVKGDDYQFTITFYPAEVYLFGNTTGGSWAFNDEWKFTVPATKDGNFVSPAMTASGEVRMCFKTDLDWWRTEFTLHDGEIFYRDFNLIDSWTEKGDGYSIQGSAGNVIHLNFTAGTGEKK", "soluble on expression in E. coli": "not soluble"},
      {"sequence": "MGSDKIHHHHHHNLKDSDRIFTNLYGRHDYRLKGAMARGDWHKTKEIILKGSDWILGELKTSGLRGRGGAGFPSGMKWGFMNKPFDGRPKYLVVNADEGEPGTCKDREIMRHDPHKLIEGCLIGGVAMGARAAYIYIRGEFYNEACILQEAINEAYKAGYLGKDCLGTGYNFDVFVHRGAGAYICGEETALIESLEGKQGKPRLKPPFPADIGLFGCPTTVTNVETVAVAPTICRRGGDWFASFGRERNRGTKLFCISGQVNNPCTVEEEMSVPLKDLIERHCGGVIGGWDNLLAIIPGGSSVPLMPKN", "soluble on expression in E. coli": "not soluble"},
      {"sequence": "MGSDKIHHHHHHMPKYLVFMDIDGTLLTDHQYVSERTRATIERFQKQDVLFYIATGRMYELAKIVRDKVNADVRLVTSNGAVFDGAQGRELTKLGGAAVELAYLIARRDNLPMMLFTPDMAYYTEQIPRFVARNAANFDADEVSIGYEEVKSFTQLATIEDQITNGVILSREDMSRLDSAREKLTNSKLLRLSSSNPNNIEMIPLNTDKGTAVKQIQREQHVDAAHTFVFGDGLNDVGMMAEADLSVAMGNALPQVKKVANYVTDMNYNDGLALFLEKYFAAHPLSTTK", "soluble on expression in E. coli": "not soluble"},
      {"sequence": "MAVSAYFHIPFCAHICHYCDFNKVFAAGQPIDDYLRAMDKEMAWTAAEFGSQLKTLFIGGGTPTVLEPAQLGCLLASIHRHFQFDPQTAEFTVEANPDGLTKEKLAILRDAGVNRLSLGVQTFDDQLLQTIGRTHRRGDVIRAVALAREVGFQNISIDVMYGLPGQTLEQFTADLEAAFSLHVPHLSAYSLILEPRTIFYNEWRKGRLRLPGEEMEAEMYEAAMEQMAAAGYRQYEISNYALPGFESRHNLTYWNNEEYYGIGAGAHSYIDGVRRANIGPIRHYISAIERGQWPHRDVRRLTTREQMEEEMFLGLRKTEGVSKACFRQKFGRDLHDIFGAAIRREIENGRLEETETHIRLTKRGKLLGNEVFAAFLGEM", "soluble on expression in E. coli": "not soluble"},
      {"sequence": "MSLKFTAIDFETANEKRNSPCSIGIVVVKDGHVVEKSHHLIRPKEMRFMPINIGIHGIRPAMVEKEPEFDKVWEKIKHYFDDTLVIAHNASFDISVLRKSAELYNIELPEFNYICTMKLARNFYKGIENAKLNTVNNFLGYEFRHHDALYDALACSNIMLSISKELKCKDITEISKLLGVTVGKVDSKGYKPSQTKGIAVRTSDRIYFSKKKSAFERLKADEFKNEVVVFTGRLDSMSRDEAMGLVRRLGGTAGSSVTKKTTILVTNMKNIKNLRREEMSNKLKRASDLNARGQNIKFLNEEEFLKIKEGHHHHHH", "soluble on expression in E. coli": "soluble"},
      {"sequence": "DIIITAGGKNITPAEIESRLKFSHYISDAVIVGDKRKFLTCLIMIDQENVEKFAQDRKVPFSNFASLCAAKEVRELIAAEVAQVNKEFARVEQIKDFRLIDVLLTAEDDELTATMKLKRSFVEKKHAHLIEDMYK", "soluble on expression in E. coli": "soluble"},
      {"sequence": "MRGSHHHHHHGSMGKGITGFDPSLYSYLQSISADDSFYLAQLRRETAHLPGAPMQISPEQAQFLGLLISLTGAKQVLEIGVFRGYSALAMALQLPPDGQIIACDQDPNATAIAKKYWQKAGVAEKISLRLGPALATLEQLTQGKPLPEFDLIFIDADKRNYPRYYEIGLNLLRRGGLMVIDNVLWHGKVTEVDPQEAQTQVLQQFNRDLAQDERVRISVIPLGDGMTLALKK", "soluble on expression in E. coli": "soluble"},
      {"sequence": "ELKDLQKDEKFWTESSQFKVSVPVGWDINHKEVCFEIGNEQNHTLICGRSGSGKSNFLHVLIQNLAFYYAPNEVQLFLLDYKEGVEFNAYTDPNILEHARLVSVASSVGYGMSFLNWLCKEMQERANLFKQFNVKDLSDYRKHGEIPRLIVVIDEFQVLFSDNKSTKAVEGHLNTLLKKGRSYGVHLILATQTMRGTDINRSIMAQIANRIALSMDAEDSNSILGDDAACELVRPEGIFNNNGGHQKHHTKMSIPKAP", "soluble on expression in E. coli": "not soluble"},
      {"sequence": "AMEVHPISEFASPFEVFKCIERDFKVAGLLESIGGPQYKARYSVIAWSTNGYLKIHDDPVNILNGYLKDLKLADIPGLFKGGMIGYISYDAVRFWEKIRDLKPAAEDWPYAEFFTPDNIIIYDHNEGKVYVNADLSSVGGCGDIGEFKVSFYDESLNKNSYERIVSESLEYIRSGYIFQVVLSRFYRYIFSGDPLRIYYNLRRINPSPYMFYLKFDEKYLIGSSPELLFRVQDNIVETYPIAGTRPRGADQEEDLKLELELMNSEKDKAEHLMLVDLARNDLGKVCVPGTVKVPELMYVEKYSHVQHIVSKVIGTLKKKYNALNVLSATFPAGTVSGAPKPMAMNIIETLEEYKRGPYAGAVGFISADGNAEFAIAIRTAFLNKELLRIHAGAGIVYDSNPESEYFETEHKLKALKTAIGVR", "soluble on expression in E. coli": "soluble"},
      {"sequence": "MGRRVLLSFLGLGDYEYCYYTYEGKTSTYTRFIQTAVYELFRNDEPMDVVVFATKEAQDRNGQDRKKGDKLLEGIGTAFSRIAPEANVKIVEIESGQDEQANWRLFDRIMDEIKEGDTIYFDITHSFRSIPFVALIVLNYARLVKKADIGAIIYGWFEVLGRPIDVEQMPEEQRVAPIVNLTSMAKLLDWTNGVDQFLRTGDASIIQALTAKENSEVFRNPSLSQAVKDEVKELRELTKRLDQTEKAIRTCRSLQIDEEVQKFHEQLGRVRSASAEAIKPLVPLLDVMEKKYAMFDDDPIMNSWKAVRWCLDHGLIQQALTMLEENAVTAVCRVLGLDLRNEKARGDVHSAIEILLRDIPKEEWRVRSVERVEQIIDFLSPYKGDLKRFSTLKERRNDINHAGARPQPLKAEKFWPDAEQSFRELGAFFERMSALAKSMQTVKGNG", "soluble on expression in E. coli": "not soluble"},
      {"sequence": "MIPRKEMAAVSTEMTMAEMLEVMLKEKYTRWPVTDGDKDSVLGLVNTKHLFSDLLFMTEEERMKMTIHPYVRPVIEVIETIPVHDLLIKMQRERIHMAILSDEYGGTSGLVTTEDILEEIVGEIR", "soluble on expression in E. coli": "not soluble"},
      {"sequence": "MGSDKIHHHHHHMIRNLTPSDFAQVISLGEQVHGANYLDLDTLKHYYQLGIKDGINAHFVAEQAGEIIGFRLTFTANQWTLDEWCSPALWGVEIDKVCYFKSNTLAEKARGQGIGGDLLAQSIAAVKAQGAKAGVSHLWKQSPHNAAVRYFTKAGGRLIKEHPGRWNQANDGSDYLCVLCGNDCHCTACEMLINF", "soluble on expression in E. coli": "not soluble"},
      {"sequence": "MGSDKIHHHHHHMKILQIVPSISLIYGGPSQMVLGLAPALVKEGVEVTILTTDSNGDNGQTPLDVPLNRPIKQDGYEIIYFRCAPFRRYKFSLDLLKWLKRHAHEFDLAHIHALFSPIISAAAIVCRQQKLPYIFRPLGTLDPADLRKKKQLKQLYVAIIERQNLASAAAIHFTSEQEAKISERFGVSTPDLVIPLGVIPRQSSLKNVCSQLEIPKDVPLVLFMSRIDPKKGLNLLIPALEKLLAVGYKFHFVLAGTNPQDPDYEQKIISQIQNSPLRSHTTITGFVTGELKVSLLQAADLFVLPSYYENFGIAVAEAMVAGVPVVISDQVHICQQIRDSESGWVGATDVQALVELLQAALQNPAERQRRGLNAQKYALENFSWDAIARQTIQAYQKILANK", "soluble on expression in E. coli": "not soluble"},
      {"sequence": "GPFCGRARVHTDFTPSPYDTDSLKIKKGDIIDIICKTPMGMWTGMLNNKVGNFKFIYVDVISE", "soluble on expression in E. coli": "soluble"},
      {"sequence": "MKPLSSAIAAALILFSAQGVAEQTTQPVVTSCANVVVVPPSQEHPPFDLNHMGTGSDKSDALGVPYYNQHAM", "soluble on expression in E. coli": "soluble"},
      {"sequence": "MGSDKIHHHHHHMLTKTIIGLDVGRSAVKVVAFANGLYYRLTFPSLVSPAFPINDEGTAARAELETVEVLGKRYFTGDTARLQGGVNMSVGLSHDWTNGPEYLALVASTMKRLAALGVPGLDSPYIVLGTPASLFGRQKEALAQRTQAVVAAEMKVLPQPMGAYCNFFMDARGVPIKDRQKRPDGKNRSWAVVEVGHYTTDFLLMREGNYIERAAVSCEGVHFAAENLVRILAAKDIQATPLTAEEALRTGVIVDFGERRIEAQVAEAVDHVVQKIMTMADSVLSNDVRSLDGVLLAGGGAPILAAGLQKKWPHTVLLENPRMAVADGFCRYGVGQMLRRAMAAEKATA", "soluble on expression in E. coli": "not soluble"},
      {"sequence": "MGSDKIHHHHHHMKTYTSNHIVFFSPTHTSAKIARAIGESIGMGRRIEIDLTTDENSSPIEIKDSITIIAVPVYAGRVAPIALQRLRRLKGNNAPAILVAVYGNRDYEDALVELRDETIQLGFTPLAAGAFIGEHSYSRPNMPIAEGRPDVTDLQIAEQFGKDCLTKLEKDETLSDFYLKGNIPYRFVGPSTPAAPVCTEECFACGECIEVCPTHAIALSDEGKIETEITKCIKCCACVKECPNGARVFDTPYTPMLHQKCAARREPELFI", "soluble on expression in E. coli": "not soluble"},
      {"sequence": "MGSDKIHHHHHHMTFDEYEVAINSEFTLQGTLTKPKAGGKYAAVIIIAGSGEIDRDGTILPLKLESNIYKDLAHVMAKLGVVTLRFDKRGVGKSDGEFLKTGMWDLVNDIESTITYLKEQPFVDPENIILAGHSEGCMLATVVNARTPVNGLILLTGAAESLEEATKRQREIAYKELKEQKGIKGKLMRLLDVEKRGEKQMEKIKEKMMNTEKDTIKVGFKPMNAKWFREHFQHDIYKDLQQVTCPVLAIAGDKDFQANPEKAKRIGDYVQGDSEVHVIKDMDHSLKSFEGDFKALEFKKNYEEGAGKPLHPMLEEIIMNWISTNFILHKIPVSTLSEYEGDGKESNCL", "soluble on expression in E. coli": "not soluble"},
      {"sequence": "SLGELFAVFNEKLTIPEQEALMFLYAYMPTGDVTDYTGDYYLENVRLSDQARREMPWGKEIPDDVFRHFVLPIRVNNENLDDSRRVFYNELKDRVKNLSLHDAVLEVNHWCHEKVIYTPSDARTSAPLASVKTAYGRCGEESTFTVAALRSVGIPARQVYTPRWAHTDDNHAWVEAWVDGKWYFFGACEPEPVLNLGWFNAPASRGMLMHTKVFGRYTGQEEIMYETPNYTEINVIDNYAPTAKGSVLVTDAEGQPVADATVEFKVYNYAEFYTVATKHTDRSGHASLTAGKGDMLVWASKDGRFGYSKLSFGKDNELKITLDKNASETYSLPLDIVPPAEGANLPEVTPEQRTENDRRMAQEDSIRNAYVATFITEEQARTFAKENKLDETETVRLLIASRGNHQTLTDFLSDAVKADKAGQAISLLKVVSAKDLRDVSPEVLNDHLNNSGLPASEDFCSNVLNPRVANEMITPYKAFFRKEIPASEAEAFRKNPQALVEWCKKEITINNELNSQRIPMSPMGVWKARVADEKSRNIFFVSMARSLGIPAWIDEVTGKIQYRTFNDNNLKNGKVYDVDFEAAQQTQAPTGTLVARYRPIPSLSDPKYYSHFTLSKFRNGTFQLLNYDEGDVDMGGGATWSNLLKNGARLDTGYYMMVTGTRMASGAVLANVTFFTIEEGKTTTVDLVMRESKDQVQVIGNFNSESTYLPIGTSEPQSILQTCGRGYYVVAVLGAGQEPTNHALRDIAALSGEFEKWGRKMVLLFPSEEQYKKFRPSEFPGLPSTITYGIDVDGAIQKQIAESMKLPNSTILPMFIIGDTFNRVVFVSQGYTIGLGEQLMKVIHGEG", "soluble on expression in E. coli": "soluble"}
    ]}
  ]
}
